The text below walks through data of paper PMC12610401, “The miR395b–ABI5 module regulates amylopectin branching and biosynthesis and affects lotus root quality”.

Data set [1] deals with T1, NnABI5 (ABA Insensitive 5) (Nelumbo nucifera, UniProt A0A1U8B646 1-478).
T1 sequence: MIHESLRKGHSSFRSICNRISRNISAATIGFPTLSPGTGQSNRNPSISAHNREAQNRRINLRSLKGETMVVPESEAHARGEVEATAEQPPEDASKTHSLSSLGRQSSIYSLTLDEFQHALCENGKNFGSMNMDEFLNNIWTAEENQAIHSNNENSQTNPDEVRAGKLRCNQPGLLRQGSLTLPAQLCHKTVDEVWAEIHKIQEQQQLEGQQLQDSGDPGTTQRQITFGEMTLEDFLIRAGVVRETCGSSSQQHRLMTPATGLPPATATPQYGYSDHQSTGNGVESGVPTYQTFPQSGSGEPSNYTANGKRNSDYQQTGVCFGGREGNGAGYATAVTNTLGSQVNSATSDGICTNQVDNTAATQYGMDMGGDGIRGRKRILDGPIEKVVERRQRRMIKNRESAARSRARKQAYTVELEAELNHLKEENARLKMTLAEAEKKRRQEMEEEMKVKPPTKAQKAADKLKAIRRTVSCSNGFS
Description: EMSA; unlabelled probe weakens the shift in a dose-dependent way; Not stated; EMSA with Beyotime chemiluminescent nucleic acid detection kit. As to conditions: protein: recombinant; tags: His (pCold TF vector); chain copies: 2; blunt. For orientation: In EMSA bound probe runs differently from free probe, usually more slowly.

In data set [2] the target is T1, NnABI5 (ABA Insensitive 5). The data set is described as follows: EMSA; Not stated; EMSA with Beyotime chemiluminescent nucleic acid detection kit. The settings on record: protein: recombinant; tags: His (pCold TF vector); chain copies: 2; blunt.

B1: NnSBEII promoter probe (WT) (dsDNA)
DNA 1: GTGGCAACGACTGGTCACGTGACTTACGTCACCCAT
DNA 2: ATGGGTGACGTAAGTCACGTGACCAGTCGTTGCCAC
As to B1, the binding result in data set [1] is on record as “binds”.

B2: NnSBEII promoter mutant probe (dsDNA)
DNA 1: GTGGCAACGACTGGTAAAAAAACTTACGTCACCCAT
DNA 2: ATGGGTGACGTAAGTTTTTTTACCAGTCGTTGCCAC
Take B2: the binding result in data set [2] is listed as “no binding”.

B3: NnSS2 promoter mutant probe (dsDNA)
DNA 1: CTTCCTCGGTTTTTCAAAAAATTTCTTCTGGAGTAT
DNA 2: ATACTCCAGAAGAAATTTTTTGAAAAACCGAGGAAG
As for B3, the binding result in data set [2] was “no binding”.

B4: NnSS2 promoter probe (WT) (dsDNA)
DNA 1: CTTCCTCGGTTTTTCCACGTGTTTCTTCTGGAGTAT
DNA 2: ATACTCCAGAAGAAACACGTGGAAAAACCGAGGAAG
With B4, in data set [1], the binding result was “binds”.
